Changes are numbered by the printed parent chain. Blank lines part the entries; values can stand above or below the binder they belong to.
Key:
human MSLN-His-Avi [1] = target: T1, human MSLN-His-Avi (human, UniProt Q13421 296-598, single biotin (BirA) in the biotinylated form); test: ELISA, hMSLN-His-Avi coated at 1 ug/ml
T1 construct: Monomeric, made in HEK293-6E; Used both immobilised and in solution; also called hMSLN-His-Avi; biotinylated hMSLN-His-Avi

[2] = target: T2, human E-Cadherin (R&D systems, 8505-EC) (human, UniProt P12830 155-707); test: ELISA, antigen coated at 1 ug/ml
T2 sequence (looked up): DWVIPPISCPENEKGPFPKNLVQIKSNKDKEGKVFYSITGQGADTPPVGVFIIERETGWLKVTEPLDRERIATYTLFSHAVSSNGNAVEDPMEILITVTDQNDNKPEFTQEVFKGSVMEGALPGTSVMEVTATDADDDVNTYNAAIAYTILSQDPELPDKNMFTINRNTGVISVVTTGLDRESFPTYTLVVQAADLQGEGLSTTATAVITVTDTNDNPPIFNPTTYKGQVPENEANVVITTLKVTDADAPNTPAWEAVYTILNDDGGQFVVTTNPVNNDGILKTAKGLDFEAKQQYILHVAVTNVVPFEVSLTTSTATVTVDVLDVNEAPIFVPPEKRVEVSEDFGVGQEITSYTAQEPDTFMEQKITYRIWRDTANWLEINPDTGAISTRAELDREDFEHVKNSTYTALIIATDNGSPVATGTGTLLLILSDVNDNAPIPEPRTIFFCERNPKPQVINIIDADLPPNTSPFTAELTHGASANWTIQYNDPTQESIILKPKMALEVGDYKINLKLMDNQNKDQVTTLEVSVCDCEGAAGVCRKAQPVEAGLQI
Experimental: (§1) A similar protocol was used as described in section 1.2.1 in which maxisorp plates were coated with 1 μg/ml of recombinant human MSLN-His-Avi, human CEACAM-5-His-Fc (Sino Biological, 1077-H03H), human E-Cadherin (R&D systems, 8505-EC), human Thrombomodulin (Peprotech, 100-58) or human EpCAM-hFc (in-house production). Binding of the anti-MSLN mAbs, tested at a concentration range of 0.02 to 1000 nM (3-fold dilutions) was detected using anti-human Fab-HRP (Sigma, A0293). Positive controls for the respective molecules included human EpCAM antibody (clone 2G8 from patent no. U.S. Pat. No. 8,236,308 B2) CEACAM-5 antibody (clone hMN15 from patent no. U.S. Pat. No. 8,771,690 B2), human E-Cadherin antibody, mouse IgG2b clone 180215 (R&D systems, MAB1838), human Thrombomodulin antibody, mouse IgG1, clone 501733 (R&D systems, MAB3947). The latter two were detected using goat anti mouse Fc-HRP (Sigma, A9309) as secondary mAb.

[3] = target: T3, human CEACAM-5-His-Fc (Sino Biological, 1077-H03H) (human, UniProt P06731 35-685); test: ELISA, antigen coated at 1 ug/ml
T3 construct: not shown: His tag and Fc
T3 sequence (looked up): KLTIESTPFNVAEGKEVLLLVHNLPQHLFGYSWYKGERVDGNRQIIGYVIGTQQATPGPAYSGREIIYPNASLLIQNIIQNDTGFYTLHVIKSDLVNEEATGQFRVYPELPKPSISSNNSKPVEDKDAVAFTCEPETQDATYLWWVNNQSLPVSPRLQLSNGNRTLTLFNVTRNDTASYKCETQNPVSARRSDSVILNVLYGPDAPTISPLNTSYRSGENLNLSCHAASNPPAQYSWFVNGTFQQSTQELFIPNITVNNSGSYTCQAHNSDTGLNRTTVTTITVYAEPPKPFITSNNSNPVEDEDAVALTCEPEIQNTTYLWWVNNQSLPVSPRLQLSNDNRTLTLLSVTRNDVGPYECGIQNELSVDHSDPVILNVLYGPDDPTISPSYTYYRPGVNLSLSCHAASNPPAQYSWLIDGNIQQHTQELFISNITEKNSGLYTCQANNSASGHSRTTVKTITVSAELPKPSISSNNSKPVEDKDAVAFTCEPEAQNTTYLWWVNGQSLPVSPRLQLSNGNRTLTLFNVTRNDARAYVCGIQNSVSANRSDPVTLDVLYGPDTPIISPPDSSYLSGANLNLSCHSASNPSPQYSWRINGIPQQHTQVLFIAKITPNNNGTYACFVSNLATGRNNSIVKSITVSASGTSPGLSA
Experimental: as §1

[4] = target: T4, human EpCAM-hFc (in-house production) (human, UniProt P16422 24-265, limits assumed); test: ELISA, antigen coated at 1 ug/ml
T4 construct: not shown: human Fc
T4 sequence (looked up): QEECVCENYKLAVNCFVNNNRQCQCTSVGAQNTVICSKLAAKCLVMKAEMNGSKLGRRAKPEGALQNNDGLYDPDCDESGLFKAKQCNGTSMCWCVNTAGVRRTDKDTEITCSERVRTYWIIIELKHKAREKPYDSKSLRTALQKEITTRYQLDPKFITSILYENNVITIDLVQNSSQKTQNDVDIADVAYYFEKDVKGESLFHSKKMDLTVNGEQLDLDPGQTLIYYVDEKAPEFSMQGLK
Experimental: as §1

[5] = target: human Thrombomodulin (Peprotech, 100-58) (human, UniProt P07204 19-515); test: ELISA, antigen coated at 1 ug/ml
Experimental: as §1

human MSLN-His-Avi [6] = target: T1, human MSLN-His-Avi; test: SPR (Biacore), hMSLN-His-Avi immobilised at 100 RU, mAb injected
Experimental: (§2) Human MSLN-His-Avi was immobilised on flow cell 2 on a CM5 Series S BIAcore sensor chip (GE Healthcare, BR100530) using an amine coupling kit (GE Healthcare, BR10050) to approximately 200 response units (RU). Flow cell 1 was left blank for subtraction. HEK293-6E supernatants or purified proteins were adjusted with HBS-EP+(GE Healthcare) to approximately 50 nM anti-MSLN mAb per sample. Samples were injected over flow cell 1 and 2 for 2.5 min at 30 μl/min and then allowed to dissociate in HBS-EP buffer for 2.5 min. Regeneration was achieved by injecting 10 mM glycine pH 1.5 (GE Healthcare, BR100354) for 30 seconds at a rate of 30 μl/min. Subtracted data (flow cell 2−flow cell 1) were analysed using BIAevaluation 3.2 Software (GE Healthcare).
(§3) For each bin described in 2.1.3, the binding kinetics were determined using the same method as described in section 2.1.2, except that human or cyno MSLN-His-Avi was immobilised at 50 or 100 RU. Clones were tested at a concentration range of 81 nM to 0.33 nM in 3-fold dilutions.

human MSLN-His-Avi [7] = target: T1, human MSLN-His-Avi; test: SPR (Biacore), hMSLN-His-Avi immobilised at 50 RU, mAb injected
Experimental: as §2, §3

[8] = target: T5, cell surface human mesothelin (MSLN) (human, UniProt Q13421 296-598); test: flow cytometry, NCI-H226 cells (n = 3)
T5 construct: whole, on cells; also called cell surface MSLN
Experimental: Briefly, NCI-H226 cells (ATCC CRL-5826) were harvested from T175 cell culture flasks using StemPro Accutase (Gibco, A11105-01). Cells were centrifuged at 1200 rpm for 3 min and resuspended in ice cold FACS buffer made up of DPBS (Life Technologies, 14190169) and 1% BSA (Sigma-Aldrich, A7906) at 2×10⁶ cells/ml and 50 μl per well was seeded in a 96-well V-bottom plate (Costar, 3894). All mAbs tested were diluted in FACS buffer in 120 μl at a concentration range of 0.01-200 nM (4-fold dilutions). The NCI-H226 cells were then centrifuged, supernatant removed and cells resuspended in 100 μl of each mAb dilution and incubated at 4° C. for 45 min. Cells were washed twice by centrifugation with 150 μl FACS buffer, resuspended in 100 μl containing goat anti-human IgG (γ-chain specific) F(ab′)2 fragment-R-Phycoerythrin antibody (Sigma, P8047) diluted 1:1000 in FACS buffer and incubated at 4° C. for 45 min. The cells were washed once with 150 μl FACS buffer and then with 150 μl DPBS, resuspended in 150 μl DPBS containing DAPI (Biotium, 40043) at 1:10.000 and read on the BDCantoll or iQue (Intellicyt). Data was analysed using FlowJo v10 to determine the signal geometric mean for PE for live cells in each well.

human MSLN-His-Avi [9] = target: T1, human MSLN-His-Avi; test: SPR as Example 4.1 (about 40 RU instead of 100), MSLN immobilised
human MSLN-His-Avi [10] = target: T1, human MSLN-His-Avi; test: SPR as Example 4.1 (about 40 RU instead of 100), MSLN in solution
human MSLN-His-Avi [11] = target: T1, human MSLN-His-Avi; test: ratio of the two SPR KD

T5 sequence (Q13421 other isoform, or with tags, fused parts or gaps limits assumed): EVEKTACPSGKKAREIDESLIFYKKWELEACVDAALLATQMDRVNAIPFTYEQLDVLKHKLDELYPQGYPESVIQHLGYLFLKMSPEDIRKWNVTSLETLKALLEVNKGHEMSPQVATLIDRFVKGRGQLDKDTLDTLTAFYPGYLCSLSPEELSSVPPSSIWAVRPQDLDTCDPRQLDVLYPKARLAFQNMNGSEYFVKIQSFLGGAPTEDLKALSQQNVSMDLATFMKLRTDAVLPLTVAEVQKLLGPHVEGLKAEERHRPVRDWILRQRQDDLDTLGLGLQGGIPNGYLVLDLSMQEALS
T1 sequence (Q13421 other isoform, or with tags, fused parts or gaps): as the sequence (Q13421 other isoform, or with tags, fused parts or gaps limits assumed) above
Chain of human Thrombomodulin (Peprotech, 100-58) (P07204 19-515 limits assumed): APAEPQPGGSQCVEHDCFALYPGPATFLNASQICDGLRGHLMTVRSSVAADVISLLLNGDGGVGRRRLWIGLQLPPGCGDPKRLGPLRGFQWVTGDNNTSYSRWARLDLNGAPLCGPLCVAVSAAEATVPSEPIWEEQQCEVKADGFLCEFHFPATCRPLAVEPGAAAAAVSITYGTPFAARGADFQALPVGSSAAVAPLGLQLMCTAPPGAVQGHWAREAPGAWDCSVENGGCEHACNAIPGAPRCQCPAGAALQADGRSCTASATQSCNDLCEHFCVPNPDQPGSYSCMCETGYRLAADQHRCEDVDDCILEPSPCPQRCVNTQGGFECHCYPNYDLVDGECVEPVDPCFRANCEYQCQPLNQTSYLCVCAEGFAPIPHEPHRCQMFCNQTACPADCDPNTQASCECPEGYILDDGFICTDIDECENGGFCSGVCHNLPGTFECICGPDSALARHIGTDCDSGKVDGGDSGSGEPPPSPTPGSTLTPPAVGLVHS

B1: G1-AA/FS28-185 (antibody, human IgG1, kappa, L234A L235A, V domains shown)
VH: EVQLLESGGGLVQPGGSLRLSCAASGFTFTTSAMSWVRQAPGKGLEWVSRINPYEGETNYADSVKGRFTISRDNSKNTLYLQMNSLRAEDTAVYYCARGWSIATYYKSAMDYWGQGTLVTVSS
VL: EIVLTQSPGTLSLSPGERATLSCRASQSVSSSYLAWYQQKPGQAPRLLIYGASSRATGIPDRFSGSGSGTDFTLTISRLEPEDFAVYYCQQSSYSAPVTFGQGTKVEIKR
notes: IgG1 LALA
EC50 (human MSLN-His-Avi [1]): ~0.5 nM
maximum binding signal (human MSLN-His-Avi [1]): 3
binding result [2]: no binding (tested: 1000 nM)
binding result [3]: no binding (tested: 1000 nM)
binding result [4]: no binding (tested: 1000 nM)
binding result [5]: no binding (tested: 1000 nM)
Kd (human MSLN-His-Avi [6]): 29.6 nM
Kd (human MSLN-His-Avi [7]): 37 nM
EC50 [8]: 37.5 nM
Emax (MFI signal) [8]: 2440 MFI

B2: FS28-256-274 (in CD137 mAb^2 format) (bispecific antibody, V domains shown)
VH: EVQLLESGGGLVQPGGSLRLSCAASGFTFTHTYMSWVRQAPGKGLEWVSTISPTYSTTNYADSVKGRFTISRDNNKNTLYLQMNSLRAEDTAVYYCARYNAYHAALDYWGQGTLVTVSS
VL: EIVLTQSPGTLSLSPGERATLSCRASQSVSSSYLAWYQQKPGQAPRLLIYGASSRATGIPDRFSGSGSGTDFTLTISRLEPEDFAVYYCQQTVPYPYTFGQGTKVEIK
Kd (human MSLN-His-Avi [9]): 19.8 nM
Kd (human MSLN-His-Avi [10]): 55.9 nM
Ratio of KD in solution/immobilised for human MSLN-His-Avi (human MSLN-His-Avi [11]): 2.8

B3: G1-AA/FS28-256 (antibody, human IgG1, kappa, L234A L235A, V domains shown)
VH: B2 VH with H31N, T50N, N75S, A101S, H103Q, A104G, A105G
VL: EIVLTQSPGTLSLSPGERATLSCRASQSVSSSYLAWYQQKPGQAPRLLIYGASSRATGIPDRFSGSGSGTDFTLTISRLEPEDFAVYYCQQSYYYPITFGQGTKVEIKR
notes: IgG1 LALA
Kd (human MSLN-His-Avi [6]): 23.2 nM
Kd (human MSLN-His-Avi [7]): 26.2 nM
EC50 [8]: 33.1 nM
Emax (MFI signal) [8]: 4250 MFI

B4: FS28-256-027 (in CD137 mAb^2 format, Table 6) (bispecific antibody, V domains shown)
VH: B2 VH with T50N
VL: B2 VL
Kd (human MSLN-His-Avi [9]): 4.7 nM
Kd (human MSLN-His-Avi [10]): 3.2 nM
Ratio of KD in solution/immobilised for human MSLN-His-Avi (human MSLN-His-Avi [11]): 0.68

Results, then the binder that gave them:

Kd (human MSLN-His-Avi [9]): 10.7 nM
Kd (human MSLN-His-Avi [10]): 7.6 nM
Ratio of KD in solution/immobilised for human MSLN-His-Avi (human MSLN-His-Avi [11]): 0.7
B5: FS28-256-272 (in CD137 mAb^2 format) (bispecific antibody, V domains shown)
VH: B2 VH with T50H
VL: B2 VL
notes: Position 55 is IMGT numbering, not the count on the entry

Kd (human MSLN-His-Avi [9]): 6 nM
Kd (human MSLN-His-Avi [10]): 7.4 nM
Ratio of KD in solution/immobilised for human MSLN-His-Avi (human MSLN-His-Avi [11]): 1.2
B6: FS28-256-273 (in CD137 mAb^2 format) (bispecific antibody, V domains shown)
VH: B2 VH with T50S
VL: B2 VL

— patent publication US20220267421A1 (INVOX PHARMA, published 2022)
